Experimental data from the supplement of paper PMC7125110.
± gives the standard error. Fewer inactive variants are shown than the library holds.

B1: glmS ribozyme (parent)
chain: AUAAAAGCGCCAGAACUACAGAAAUGUAGUUGACGAGGAGGAGGUUUAUCGAAUUUUCGGCGGAUGCCUCCAAA

Legend:
Conditions in all cases: with glucosamine-6-phosphate
glucosamine-6-phosphate [1] = variants of: B1; experiment: self-cleavage kobs at 640 uM GlcN6P; higher = faster cleavage; RNA array
How it was run: (§1)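 Barcoded ribozyme variants on sequenced MiSeq chips were transcribed in situ by E. coli RNA polymerase and followed at 37 °C through a hybridised Cy3 probe. Glucosamine-6-phosphate at 40 μM to 10 mM in HEPES/KCl/Mg(OAc)2 buffer was flowed in, and tiles were imaged over ~14 h. Signals were normalised to baseline and to non-cleaving reference variants, and per-tile medians were fit to one- or two-exponential decays to give kobs. Weighted Michaelis–Menten fits across concentrations gave kcat and KM.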

glucosamine-6-phosphate [2] = variants of: B1; experiment: self-cleavage kobs at 2500 uM GlcN6P; higher = faster cleavage; RNA array
How it was run: as §1

glucosamine-6-phosphate [3] = variants of: B1; experiment: self-cleavage kobs at 160 uM GlcN6P; higher = faster cleavage; RNA array
How it was run: as §1

glucosamine-6-phosphate [4] = variants of: B1; experiment: self-cleavage kobs at 10000 uM GlcN6P; higher = faster cleavage; RNA array
How it was run: as §1

Variant	self-cleavage kobs at 640 uM GlcN6P (glucosamine-6-phosphate [1]) [s⁻¹]	self-cleavage kobs at 2500 uM GlcN6P (glucosamine-6-phosphate [2]) [s⁻¹]	self-cleavage kobs at 160 uM GlcN6P (glucosamine-6-phosphate [3]) [s⁻¹]	self-cleavage kobs at 10000 uM GlcN6P (glucosamine-6-phosphate [4]) [s⁻¹]
A6C G9C G41U	< 1e-05	< 1e-05	–	–
G44U C71G	< 1e-05	–	< 1e-05	< 1e-05
G43C C61A	< 1e-05	< 1e-05	< 1e-05	< 1e-05
G41U C58U	< 1e-05	–	< 1e-05	–
A6C C10G G41U	< 1e-05	< 1e-05	–	–
G38A G41C	< 1e-05	< 1e-05	< 1e-05	< 1e-05
G44A C61U	< 1e-05	< 1e-05	< 1e-05	< 1e-05
G37U A42C C50U C68G	< 1e-05	< 1e-05	< 1e-05	–
A48C C61G	< 1e-05	< 1e-05	< 1e-05	< 1e-05
U57A G62C	< 1e-05	–	< 1e-05	< 1e-05
A48U U49C A64U C70U	< 1e-05	–	< 1e-05	–
C50G C67G	5e-05 ± 7.7e-06	–	7.32e-05 ± 1.3e-05	–
G51U U56C C70G	–	–	< 1e-05	< 1e-05
G44C G59A	< 1e-05	< 1e-05	< 1e-05	< 1e-05
G44C G62C G66A	< 1e-05	–	< 1e-05	–
A39C C50G	< 1e-05	–	< 1e-05	–
A6C A14C U31C A36G A48G	< 1e-05	–	–	< 1e-05
C50U C61A	2.67e-05 ± 1.1e-05	3.11e-05 ± 1e-05	9.85e-05 ± 4.8e-05	–
A53U G62U A64U	< 1e-05	< 1e-05	< 1e-05	–
G43C U49G	< 1e-05	< 1e-05	< 1e-05	< 1e-05
A39C G59U C61A	–	–	< 1e-05	–
G43C C50A C58U	< 1e-05	< 1e-05	< 1e-05	–
A6C C10A G32A G51A A52G A53G G59C G63U C68A	0.000154 ± 5.6e-05	–	–	–
U46G A64U	–	–	< 1e-05	–
G38A G41U U56G	< 1e-05	< 1e-05	< 1e-05	–
C58A G60U C61U C71A	–	< 1e-05	< 1e-05	–

Variant	self-cleavage kobs at 640 uM GlcN6P (glucosamine-6-phosphate [1]) [s⁻¹]	self-cleavage kobs at 2500 uM GlcN6P (glucosamine-6-phosphate [2]) [s⁻¹]	self-cleavage kobs at 160 uM GlcN6P (glucosamine-6-phosphate [3]) [s⁻¹]	self-cleavage kobs at 10000 uM GlcN6P (glucosamine-6-phosphate [4]) [s⁻¹]
G38C G59A	< 1e-05	–	< 1e-05	–
G43U G59U G60A	–	< 1e-05	< 1e-05	–
U57G C58A G63U	–	–	< 1e-05	–
G38A A39C U57A	< 1e-05	–	< 1e-05	–
A52C C58A	< 1e-05	–	< 1e-05	< 1e-05
G41A C67U	< 1e-05	< 1e-05	< 1e-05	–
U54A U57A U65C	–	–	< 1e-05	–
A53C G63C	–	< 1e-05	< 1e-05	< 1e-05
A42C U47A	–	< 1e-05	< 1e-05	–
U46C U54A	0.00148 ± 0.00038	–	0.000326 ± 8.6e-05	–
G37A G43U U47C A52C A64U	< 1e-05	< 1e-05	< 1e-05	–
G38C G44U C67G	–	–	< 1e-05	< 1e-05
G40A G51U	< 1e-05	–	< 1e-05	–
U45G C50G C71U	–	–	< 1e-05	–
G38U A42U U56G	< 1e-05	–	< 1e-05	< 1e-05
G41A U47A G62C	< 1e-05	< 1e-05	< 1e-05	–
C50U U56A	–	–	< 1e-05	–
A52C A64C	< 1e-05	–	< 1e-05	< 1e-05
G38U G60U	< 1e-05	–	< 1e-05	–
A39U U47G A52U G60U G63U	–	–	< 1e-05	–
G37A G43C	–	< 1e-05	< 1e-05	–
C50A C67U U69C	–	0.000119 ± 3.2e-05	5.97e-05 ± 1.8e-05	–
U55G U56G U69C	0.000115 ± 2.6e-05	0.000201 ± 4.3e-05	0.000134 ± 3.4e-05	–
C50G U65C	0.000255 ± 0.0001	4.37e-05 ± 2.1e-05	4.48e-05 ± 1.6e-05	–
U54C U55A	0.00609 ± 0.0028	0.00974 ± 0.0036	0.00144 ± 0.00036	–
U57G C68U C71U	–	5.05e-05 ± 2.4e-05	4.43e-05 ± 1.8e-05	–
